Assay results from publication PMC3936768, “Transcription factor abundance controlled by an auto-regulatory mechanism involving a transcription start site switch”.

T1: ZNF143 DBD (UniProt P52747 237-440)
T1 sequence: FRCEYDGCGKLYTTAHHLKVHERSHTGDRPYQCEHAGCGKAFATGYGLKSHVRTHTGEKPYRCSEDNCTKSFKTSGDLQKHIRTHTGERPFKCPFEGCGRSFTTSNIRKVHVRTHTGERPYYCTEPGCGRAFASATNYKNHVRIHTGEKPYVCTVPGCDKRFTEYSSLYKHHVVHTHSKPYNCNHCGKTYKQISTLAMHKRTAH

B1: SBS/B (dsDNA)
DNA 1: TGTCCTGGTGCATGGTGGTCGGA
DNA 2: TCCGACCACCATGCACCAGGACA
B2: mut SBS/B- (dsDNA)
DNA 1: CGATTACCATGCACCAGGACAGG
DNA 2: CCTGTCCTGGTGCATGGTAATCG
B3: mut SBS/C- (dsDNA)
DNA 1: GTTTTTAAAACGTGTGCATTATTCTCC
DNA 2: GGAGAATAATGCACACGTTTTAAAAAC
B4: SBS/A (dsDNA)
DNA 1: CAGCCCAATGGAAGCTGGGGGCG
DNA 2: CGCCCCCAGCTTCCATTGGGCTG
B5: SBS/C (dsDNA)
DNA 1: TTTTACCCAGTGTGCATTATTCTCC
DNA 2: GGAGAATAATGCACACTGGGTAAAA

Biological target: T1, ZNF143 DBD
Experiment: EMSA; 20 fmol 32P probe; 4% native PAGE in 0.25x TBE; competition: 20 min preincubation at room temperature, 10 uL; buffer as in ref 33 (not given); competitor excess 200-fold (Methods) or 1000-fold (Fig 2E legend)
Conditions: protein: recombinant, blunt

Binder	binding result	binding result (label: 5' 32P)
B1	binds	–
B2	–	no binding
B3	–	no binding
B4	–	no binding
B5	binds	–
